By pKa is commonly meant the negative logarithm of the acid dissociation constant.

One series deals with Asp87 (UniProt position 88, ALAVVDPGESR). Kind of series: NMR.
Another series concerns the target Glu62 (UniProt position 63, GIPVYEFEGTS). The experiment in a line: NMR.
In another series the target is Glu50 (UniProt position 51, IKEDIEYYAKL). The experiment in a line: NMR.
In another series the target is Glu69 (UniProt position 70, EGTSVELGTLL). The experiment in a line: NMR.
In another series the target is Asp44 (UniProt position 45, RNAKPDIKEDI). Kind of series: NMR.
Another series concerns the target Glu90 (UniProt position 91, VVDPGESRILA). The experiment in a line: NMR.
The target of a further series is Asp12 (UniProt position 13, LKKAQDTGKIV). The experiment in a line: NMR.
In the next series the target is Glu100 (UniProt position 101, ALGGKE-----). The experiment in a line: NMR.
A further series concerns the target Glu6 (UniProt position 7, VDFAFELKKAQ). Kind of series: NMR.
In the next series the target is Asp2 (UniProt position 3, ---MVDFAFEL). The experiment in a line: NMR.
Another series has as its target Glu47 (UniProt position 48, KPDIKEDIEYY). Kind of series: NMR.
The target in another series is Asp48 (UniProt position 49, PDIKEDIEYYA). The experiment in a line: NMR.
Another series addresses Glu64 (UniProt position 65, PVYEFEGTSVE). Kind of series: NMR.
Series [1] concerns the target Asp3 (position 3, ---GGDGG---). The experiment in a line: potentiometry.
Series [2] has as its target Glu3 (position 3, ---GGEGG---). The experiment in a line: potentiometry.
[3] abbreviates: 298 K, 5.4 M guanidine-HCl, not stated for the denatured samples, unfolded (guanidine-denatured).
The mark [4] stands for this setting: 298 K, low ionic strength, 10 mM sodium citrate/phosphate, no added salt stated, folded (native).
The mark [5] stands for this setting: 333 K, 5.4 M guanidine-HCl, not stated for the denatured samples, unfolded (guanidine-denatured).
Where [6] appears, read: 333 K, low ionic strength, 10 mM sodium citrate/phosphate, no added salt stated, folded (native).
Where [7] appears, read: 298 K, 5.4 M guanidine hydrochloride, free peptide in 5.4 M GdnHCl.
[8] abbreviates: 298 K, no added salt (peptide in nano-pure water), free peptide, no denaturant.
[9] abbreviates: 333 K, 5.4 M guanidine hydrochloride, free peptide in 5.4 M GdnHCl.
[10] abbreviates: 333 K, no added salt (peptide in nano-pure water), free peptide, no denaturant.

Turning to “50S ribosomal protein L30e, 5R->K variant (L30e*) (Thermococcus celer; R8K;R21K;R42K;R54K;R76K)”, the pKa came out at 3.54±0.02 with Asp87 (setting [3]); 2.50±0.02 in the series with Asp87 (setting [4]); 3.47±0.02 with Asp87 (setting [5]); 2.49±0.03 with Asp87 (setting [6]); 4.19±0.02 with Glu62 (setting [3]); 3.20±0.06 in the series with Glu62 (setting [4]). In addition, the pKa in the series with Glu62 (setting [5]) worked out at 4.03±0.02; with Glu62 (setting [6]), 3.30±0.06; with Glu50 (setting [3]), 4.16±0.02; in the series with Glu50 (setting [4]), 5.10±0.07; with Glu50 (setting [5]), 4.02±0.03; in the series with Glu50 (setting [6]), 5.00±0.06. The pKa with Glu69 (setting [3]) is 4.19±0.02; with Glu69 (setting [4]), 3.79±0.03; with Glu69 (setting [5]) it was 4.01±0.03; with Glu69 (setting [6]), 3.82±0.03; in the series with Asp44 (setting [3]), 3.62±0.01; with Asp44 (setting [4]) it was 3.08±0.04. The pKa came to 3.52±0.02 with Asp44 (setting [5]); 2.88±0.04 with Asp44 (setting [6]); 4.16±0.02 with Glu90 (setting [3]); 4.17±0.02 with Glu90 (setting [4]); 4.02±0.03 with Glu90 (setting [5]); 4.24±0.02 with Glu90 (setting [6]). Further, the pKa with Asp12 (setting [3]) is reported as 3.56±0.02; in the series with Asp12 (setting [4]) it was 3.69±0.02; with Asp12 (setting [5]), 3.46±0.02; in the series with Asp12 (setting [6]) it was 3.69±0.03; in the series with Glu100 (setting [3]), 4.19±0.02; in the series with Glu100 (setting [4]), 4.31±0.03. Moreover, the pKa with Glu100 (setting [5]) is 4.06±0.02; with Glu100 (setting [6]) it was 4.38±0.05; with Glu6 (setting [3]), 4.17±0.02; with Glu6 (setting [4]) it was 2.34±0.03; with Glu6 (setting [5]), 4.00±0.02; with Glu6 (setting [6]) it was 2.38±0.04. In addition, the pKa with Asp2 (setting [3]) turned out to be 3.62±0.01; with Asp2 (setting [4]) it was 3.13±0.04; with Asp2 (setting [5]), 3.53±0.02; with Asp2 (setting [6]), 3.09±0.05; with Glu47 (setting [3]) it was 4.17±0.02; with Glu47 (setting [4]) it was 4.53±0.04. Further, the pKa is given as 4.00±0.02 with Glu47 (setting [5]); 4.56±0.04 with Glu47 (setting [6]); 3.56±0.02 with Asp48 (setting [3]); 4.14±0.04 with Asp48 (setting [4]); 3.46±0.02 in the series with Asp48 (setting [5]); 4.24±0.04 with Asp48 (setting [6]). Also, the pKa is given as 4.17±0.02 in the series with Glu64 (setting [3]), 4.10±0.06 with Glu64 (setting [4]), 4.00±0.02 with Glu64 (setting [5]) and 4.06±0.07 with Glu64 (setting [6]).
On to GGDGG [Model pentapeptide Ac-GGDGG-NH2 (synthetic)], for which the pKa in series [1] (setting [7]) turned out to be 3.70±0.01; in series [1] (setting [8]) it was 3.69±0.03; in series [1] (setting [9]), 3.64±0.02; in series [1] (setting [10]) it was 3.61±0.02.
As for GGEGG [Model pentapeptide Ac-GGEGG-NH2 (synthetic)], the pKa turned out to be 4.18±0.04 in series [2] (setting [7]), 4.17±0.03 in series [2] (setting [8]), 4.10±0.02 in series [2] (setting [9]) and 4.10±0.01 in series [2] (setting [10]).

Values taken from article PMC3261180.
